Publication PMC4666130 (Molecular Biology of the Cell, 2015)

Target: T1, claudin-19 (human CLDN19), expressed in HEK293 cells (human, UniProt Q8N6F1 1-224)
T1 sequence (looked up): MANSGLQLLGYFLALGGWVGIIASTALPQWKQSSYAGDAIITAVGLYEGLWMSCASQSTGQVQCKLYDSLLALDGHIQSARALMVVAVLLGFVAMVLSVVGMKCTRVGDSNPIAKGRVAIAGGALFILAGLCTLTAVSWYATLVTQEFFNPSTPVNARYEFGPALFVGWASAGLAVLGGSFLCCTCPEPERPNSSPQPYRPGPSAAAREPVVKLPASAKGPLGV
Assay: cross-linking

B1: claudin-16 (human CLDN16), expressed in HEK293 cells (natural protein, UniProt Q9Y5I7 1-235, looked up)
chain: MRDLLQYIACFFAFFSAGFLIVATWTDCWMVNADDSLEVSTKCRGLWWECVTNAFDGIRTCDEYDSILAEHPLKLVVTRALMITADILAGFGFLTLLLGLDCVKFLPDEPYIKVRICFVAGATLLIAGTPGIIGSVWYAVDVYVERSTLVLHNIFLGIQYKFGWSCWLGMAGSLGCFLAGAVLTCCLYLFKDVGPERNYPYSLRKAYSAAGVSMAKSYSAPRTETAKMYAVDTRV
  stoichiometry N: 1 claudin-16 per claudin-19
